Experimental findings from PMC6169833 are described below.

The chains are these.
B1: Nup153-N wild type (1- to 608-amino-acid N-terminal construct of Nup153), C-terminally Flag-tagged [human] / endogenous Nup107 [human (endogenous in HEK293T)] (parent)
chain 1: MASGAGGVGGGGGGKIRTRRCHQGPIKPYQQGRQQHQGILSRVTESVKNIVPGWLQRYFNKNEDVCSCSTDTSEVPRWPENKEDHLVYADEESSNITDGRITPEPAVSNTEEPSTTSTASNYPDVLTRPSLHRSHLNFSMLESPALHCQPSTSSAFPIGSSGFSLVKEIKDSTSQHDDDNISTTSGFSSRASDKDITVSKNTSLPPLWSPEAERSHSLSQHTATSSKKPAFNLSAFGTLSPSLGNSSILKTSQLGDSPFYPGKTTYGGAAAAVRQSKLRNTPYQAPVRRQMKAKQLSAQSYGVTSSTARRILQSLEKMSSPLADAKRIPSIVSSPLNSPLDRSGIDITDFQAKREKVDSQYPPVQRLMTPKPVSIATNRSVYFKPSLTPSGEFRKTNQRIDNKCSTGYEKNMTPGQNREQRESGFSYPNFSLPAANGLSSGVGGGGGKMRRERTRFVASKPLEEEEMEVPVLPKISLPITSSSLPTFNFSSPEITTSSPSPINSSQALTNKVQMTSPSSTGSPMFKFSSPIVKSTEANVLPPSSIGFTFSVPVAKTAELSGSSSTLEPIISSSAHHVTTVNSTNCKKTPPEDCEGPFRPAEILKEGSV
chain 2: MDRSGFGEISSPVIREAEVTRTARKQSAQKRVLLQASQDENFGNTTPRNQVIPRTPSSFRQPFTPTSRSLLRQPDISCILGTGGKSPRLTQSSGFFGNLSMVTNLDDSNWAAAFSSQRSGLFTNTEPHSITEDVTISAVMLREDDPGEAASMSMFSDFLQSFLKHSSSTVFDLVEEYENICGSQVNILSKIVSRATPGLQKFSKTASMLWLLQQEMVTWRLLASLYRDRIQSALEEESVFAVTAVNASEKTVVEALFQRDSLVRQSQLVVDWLESIAKDEIGEFSDNIEFYAKSVYWENTLHTLKQRQLTSYVGSVRPLVTELDPDAPIRQKMPLDDLDREDEVRLLKYLFTLIRAGMTEEAQRLCKRCGQAWRAATLEGWKLYHDPNVNGGTELEPVEGNPYRRIWKISCWRMAEDELFNRYERAIYAALSGNLKQLLPVCDTWEDTVWAYFRVMVDSLVEQEIQTSVATLDETEELPREYLGANWTLEKVFEELQATDKKRVLEENQEHYHIVQKFLILGDIDGLMDEFSKWLSKSRNNLPGHLLRFMTHLILFFRTLGLQTKEEVSIEVLKTYIQLLIREKHTNLIAFYTCHLPQDLAVAQYALFLESVTEFEQRHHCLELAKEADLDVATITKTVVENIRKKDNGEFSHHDLAPALDTGTTEEDRLKIDVIDWLVFDPAQRAEALKQGNAIMRKFLASKKHEAAKEVFVKIPQDSIAEIYNQCEEQGMESPLPAEDDNAIREHLCIRAYLEAHETFNEWFKHMNSVPQKPALIPQPTFTEKVAHEHKEKKYEMDFGIWKGHLDALTADVKEKMYNVLLFVDGGWMVDVREDAKEDHERTHQMVLLRKLCLPMLCFLLHTILHSTGQYQECLQLADMVSSERHKLYLVFSKEELRKLLQKLRESSLMLLDQGLDPLGYEIQL

The experiment covers variants of B1. Kind of experiment: Flag immunoprecipitation and Western blotting, quantified with ImageJ. The conditions noted are these: HEK293T cells transfected with Nup153-N constructs, harvested 72 h after transfection, parent: 1, read off a plot.
As to chain 1 S516E S518E S519E S522E, the ratio to parent amounted to 0.57.
